Tested on: HUVEC
Test: Western blot of pAkt in HUVEC after PTEN siRNA knockdown
Assay type: cell-based, human
Conditions: PTEN siRNA 20 nM, SEMA3F 1800 ng/ml
Description: FIG. 36A depicts a western blot. HUVEC were treated with SEMA3F (1800 ng/ml) for 30 minutes and were subjected to immunoprecipitation and Western blot analyses with anti-NRP2 and -PTEN as illustrated. FIG. 36B depicts a western blot. HUVEC were transfected with control-, or Plexin A1-specific siRNAs (20 nM), prior to SEMA3F treatment (1800 ng/ml); lysates were subjected to immunoprecipitation and Western blot analyses with anti-NRP2 and anti-PTEN as illustrated. FIG. 36C depicts a western blot. HUVEC were transfected with control-, or PTEN-specific siRNAs (20 nM), prior to SEMA3F treatment (1800 ng/ml); lysates were analyzed by Western blot. FIG. 36D depicts a western blot. U87MG cells were transfected with control or GIPC1-specific siRNA (20 nM). After 48 hours, cells were treated with SEMA3F (200, 600, 1800 ng/ml, from left to right) for 30 minutes, and were analyzed by Western blot. FIG. 36E depicts a western blot. U87MG cells were treated with U0126 (10 μM) for 30 minutes prior to combination with 30 minutes and 60 minutes of SEMA3F (640 ng/ml). Akt and MAPK signaling was analyzed by Western blot. All data presented are representative of 3 independent experiments.
It is thus likely that SEMA3F inactivates mTORC2 via upstream inhibition of PI-3K. […]

B1: SEMA3F: Human recombinant full-length His-Myc-tagged SEMA3F, secreted by transfected 293T cells and purified; class 3 semaphorin, NRP-2 ligand (protein, listed as Homo sapiens)
chain: MLVAGLLLWASLLTGAWPSFPTQDHLPATPRVRLSFKELKATGTAHFFNFLLNTTDYRILLKDEDHDRMYVGSKDYVLSLDLHDINREPLIIHWAASPQRIEECVLSGKDVNGECGNFVRLIQPWNRTHLYVCGTGAYNPMCTYVNRGRRAQATPWTQTQAVRGRGSRATDGALRPMPTAPRQDYIFYLEPERLESGKGKCPYDPKLDTASALINEELYAGVYIDFMGTDAAIFRTLGKQTAMRTDQYNSRWLNDPSFIHAELIPDSAERNDDKLYFFFRERSAEAPQSPAVYARIGRICLNDDGGHCCLVNKWSTFLKARLVCSVPGEDGIETHFDELQDVFVQQTQDVRNPVIYAVFTSSGSVFRGSAVCVYSMADIRMVFNGPFAHKEGPNYQWMPFSGKMPYPRPGTCPGGTFTPSMKSTKDYPDEVINFMRSHPLMYQAVYPLQRRPLVVRTGAPYRLTTIAVDQVDAADGRYEVLFLGTDRGTVQKVIVLPKDDQELEELMLEEVEVFKDPAPVKTMTISSKRQQLYVASAVGVTHLSLHRCQAYGAACADCCLARDPYCAWDGQACSRYTASSKRRSRRQDVRHGNPIRQCRGFNSNANKNAVESVQYGVAGSAAFLECQPRSPQATVKWLFQRDPGDRRREIRAEDRFLRTEQGLLLRALQLSDRGLYSCTATENNFKHVVTRVQLHVLGRDAVHAALFPPLSMSAPPPPGAGPPTPPYQELAQLLAQPEVGLIHQYCQGYWRHVPPSPREAPGAPRSPEPQDQKKPRNRRHHPPDT
modifications: His-Myc tag
notes: Human recombinant full-length His-Myc-tagged SEMA3F, secreted by transfected 293T cells and purified; class 3 semaphorin, NRP-2 ligand
- pAkt expression following siRNA knockdown of PTEN: failed to inhibit pAkt expression
